Data published in US20240352439, “POLYPEPTIDES AND METHODS FOR MODIFYING NUCLEIC ACIDS” (THE UNIVERSITY OF CHICAGO, published 2024).

What was measured:
Experiment in all cases: kapp, same conditions
TadA8e = TadA8e (Escherichia coli); settings: tags: MBP removed by TEV; label: 5'-FAM
Source text: (§1) We compared adenine deamination efficiency of TadA8r in ssDNA with TadA8.20 and TadA8e. Maltose binding protein (MBP) fused TadA8r, TadA8.20, and TadA8e were purified through immobilized metal affinity chromatography. A Tobacco Etch Virus (TEV) protease cutting site was installed between MBP and TadA*. After TEV proteinase treatment, TadA8r, TadA8.20, and TadA8e were purified by immobilized metal affinity chromatography, ion-exchange chromatography, and size-exclusion chromatography. DNA deamination assays were carried out using […] ssDNA oligos under single-turnover conditions. A-to-I conversion was measured to determine the apparent first-order deamination rate constant (kₐₚₚ) (FIG. 2a). Both TadA8.20 and TadA8e preferred TA over GA (kₐₚₚ=0.07 min⁻¹ and 0.08 min⁻¹ for TadA 8.20 on GA and TA probes, respectively; kₐₚₚ=0.01 min⁻¹ and 0.02 min⁻¹ for TadA8e on GA and TA probes, respectively). The kₐₚₚ for TadA8r is much higher—0.55 min⁻¹ on the GA probe and 0.39 min⁻¹, on the TA probe).
(§2) The single turnover DNA deamination reactions containing 4 uM TadA variants in deamination buffer (50 mM Tris, 25 mM KCl, 2.5 mM MgCl₂, 2 mM dithiothreitol, and 10% (v/v) glycerol; pH 7.5) and 5′ Fluorescein labeled ssDNA (IDT) (Supplementary Table 6) to a final concentration of 200 nM. All reactions were incubated at 37° C. At various time points (0, 1, 5, 10, 20, 60, 180 mins), 10 uL reaction mixture were aliquoted and quenched by adding 10 ul of hot water and incubating at 95° C. for 10 min. Reaction mixtures were supplied with 100 ug/ml Proteinase K (Fisher scientific) and incubated at 55° C. for 3 h followed by inactivating at 85° C. for 30 mins and 95° C. for 15 mins. To detected adenosine deamination, reaction mixture was incubated with 10 unit of E. coli EndonucleaseV in 1×NEB4 buffer at 37° C. for 1 h. After cleavage by EndoV, samples were mixed with 2-fold PAGE gel loading buffer (95% formamide, 10 mM EDTA, 0.025% SDS), heated at 95° C. for 5 min, resolved on 15% (v/v) denaturing polyacrylamide gel. Uncleavage substrate and cleavage product were visualized by ChemiDoc XRS+(Bio-rad) under fluorescein channel. DNA band quantification were analyzed using ImageJ Software. Curve fitting was done in GraphPad.

TadA8r (TadA-RA5.2) = TadA8r (TadA-RA5.2) (Escherichia coli); settings: tags: 6xHis-MBP removed by TEV; label: 5'-FAM
Source text: as §1, §2

TadA8.20 = TadA8.20 (Escherichia coli, UniProt P68398 SEQ:1-167); settings: tags: MBP removed by TEV; label: 5'-FAM
Source text: as §1, §2

Row | Binder | activity (TadA8e) [min⁻¹] | activity (TadA8r (TadA-RA5.2)) [min⁻¹] | activity (TadA8.20) [min⁻¹]
1 | TGGGTTGGTTATCGTTTGGTGG (ssDNA) [TA probe] | 0.02 | 0.39 | 0.08
2 | TGGGTTGGTGATCGTTTGGTGG (ssDNA) [GA probe] | 0.01 | – | 0.07
